Reference: the DeepSol protein solubility set

Test: soluble on expression in E. coli; label from the status in PepcDB or PDB records

Row | Sequence | soluble on expression in E. coli
1 | MSSVTAPRLDRATMGRKGGQKAAERWKTDPESDYATAQRETLAAANKRGARQGTGTRGRVLAVYSQTLVDTGEVPTARQIAGEIGITKRMVNIHLKELRDAGLVEQGLRDIWACGRNLGGFPV | not soluble
2 | MSTFRLITGGIGTGKTLWTVEQLFKLKNLTPDRLVYTDITGIKHTGVTVVPPDFDWRNVEDNSLIIFDEVQYKELFSRHNSKRDKQILDLTTMRKRGIEIWCITQRARFLNQDVLGLVNEHIHLEKTGDKTARVYIWHEAETNITKTKKMFPFEKYVWQHPTDLYGFYESIKPDA | not soluble
3 | MSTGSVDSQQSGGTLDAASKNIDHVIDQARHRHHQHRSKFKEAIDYLDQIFEDLKKECDPDDKNNNDENNKPFDPPPTFVAVKKKPTPLATSSASTTAPAAKIASASDSKKPASSSSTISVKPTVRQKTSETSKSKPLQQAPPSPVEVVIPVRKLSQGATNNQAEPTVAETIVLAKKTDKMDFTRRWLQDDLKSLAHLPPANIAPNASYYQDFDEHSLGSCSAEVAAFNTTKEKKNGSKASRKVSDSSDMIRPRPFRPQPVYPMVDGFNGPSAFEPFSSHTLPRVASNDQIPSEMKRSGSQDPYNTLRSMRSEGDGFDSARPSPSAFQQVSPFHRGSSMRSSLRSLPDHSPVRQKNSSYEVAAKDPVLSIDQLVAELELNTENTFSPADKRRSFPTSFGRPQAHQAQQHHAPSDYEKPNRFRAETRHAPTRGRAQNFVAPVAEPMTSKAPIYSQAVRPKQQQQQKSLDEVTSMLNRAVSQFGNEQRQAYQHPTAYKQLSQQSFGSVHSNNAFETINQEKINPSRVEAMHNMFERGTAPTSWKMQQKDSYEDRSQKMSPLQEVTYASLNSYSPPPPPPSHPLPQNGSHGMARNTSQNQISYHEYTPQPPTTQPPQRPPGSANSSQGGYYSSNSSGIGSNYPQNQQNQMYNNPRRSLIIDQQSISSRMPSVENDDDDGFYDNIGIYNDDRRYSRGSELETSASFRQLPPASNTSKHNRIGSFLRKIGGGSSRPPGSAASLMSLNKIANETIIKPGGLMKSNSLSNEPWKKVMLNGGASMPREANNNHKTGLGARLKNSLFGSRKRLDG | not soluble
4 | MSTINFANREINFKIVYYGPGLSGKTTNLKWIYSKVPEGRKGEMVSLATEDERTLFFDFLPLDIGEVKGFKTRFHLYTVPGQVFYNASRKLILRGVDGIVFVADSAPNRLRANAESMRNMRENLAEYGLTLDDVPIVIQVNKRDLPDALPVEMVRAVVDPEGKFPVLEAVATEGKGVFETLKEVSRLVLARVAGGS | soluble
5 | MSTINYDLSRIKALAFDVDGVLSSTTVPLHPSGEPMRTVNIKDGYAIQLAVKKGLHIAIITGGRTEAVRIRFAALGVKDLYMGSAVKIHDYRNFRDKYGLSDDEILYMGDDVPDIEVMRECGLPCCPKDAVPEVKSVAKYISYADGGRGCGRDVVEQVLKAHGKWMAEDAFGW | not soluble
6 | MSTLGDLLAEHTVLPGSAVDHLHAVVGEWQLLADLSFADYLMWVRRDDGVLVCVAQCRPNTGPTVVHTDAVGTVVAANSMPLVAATFSGGVPGREGAVGQQNSCQHDGHSVEVSPVRFGDQVVAVLTRHQPELAARRRSGHLETAYRLCATDLLRMLAEGTFPDAGDVAMSRSSPRAGDGFIRLDVDGVVSYASPNALSAYHRMGLTTELEGVNLIDATRPLISDPFEAHEVDEHVQDLLAGDGKGMRMEVDAGGATVLLRTLPLVVAGRNVGAAILIRDVTEVKRRDRALISKDATIREIHHRVKNNLQTVAALLRLQARRTSNAEGREALIESVRRVSSIALVHDALSMSVDEQVNLDEVIDRILPIMNDVASVDRPIRINRVGDLGVLDSDRATALIMVITELVQNAIEHAFDPAAAEGSVTIRAERSARWLDVVVHDDGLGLPQGFSLEKSDSLGLQIVRTLVSAELDGSLGMRDARERGTDVVLRVPVGRRGRLML | not soluble
7 | MSTNEIYNREEVLLLIEKLLGNNIEIPILLMLLLGLRMGEATGLRWSDVDLDNNLINVNQILVYSNGKISFKEPKTPKSKRALSAPKELIEKLKIEKLRQSKLKLQGILENKNNLVCLNTNLNPFLPSSLRKTFHNFTKKNNLKKIRIHDLRHTSATLLLLGGTNMKVVSERLGHTDIKITMNRYSHVLKEMDKEASDNLSELLEHHHHHH | not soluble
8 | MSTPLMQRSLSPQEWQVFQRGDRWTGARLHQPLNLLLIGSKVLTSDLDHPPDPNLTYHALVNSVEGLSDSLLLVRFDPVQQRLVILSIPRDTLTFIPGRGDAKINEANALGGPALAAATVSELLGNVPIDRYLRINVQGIEKLIDALGGVTLDVPIAMRYRDESQHLYIDLQAGRHHLNGQQALQFLRFRYDALGDIGRVQRQQMFLRTLMEQTARPETLARTPHILSIIRENLDTNLTVEELMSLGQFLTRLPRSRVQFLLLPGNFNGTTEEVAVSYWLPNYQRIAWLTDQYFRDTPTADPRETGLPSPAQVRIAIQNTNLPQSLVMRLSEQLATAGYPHPLVAEPLPQPIPITRIIAQQGDLAAARQVQLLLGFGEVRVESTGVLASDVTIQLGDDARDRLQLRRTTSLLEHHHHHH | soluble
9 | MSTPLSRVITNEIFRVPARRKPKPAVKPSDIPTLKDYTARLVDQKWLRLAARRKSA | not soluble
10 | MSTPRIEHYTTDVHAHWEGIHPQDWAEVDLIGYENAMDKMYRTLCENPDAALVQVGHRSKLLNDHGSDYRFNGKFTSEQTKPERSHHDYNHFGKLMKWEGDRWYKYDFEVEVTDHTRSE | not soluble
11 | MSTVKEAVDVEVPVHTAYNQWTQFEEFPHFMEGVEEVRQLDERHNHWTTQVSGVKREFDTEIVDQLPDERITWRTTTGDTNQKGTVRFQRLDDTHTRVELVMDVDPTGVAEKTGDMLGVIDRRVKGDMQRFKEYIEKRGGESGAWRGRIRPGELEHHHHHH | soluble
12 | MSTVNVQIGLHELLNGSNAQIQLSVPQLVEKVLMRNEGKLTSTGAVSASTGKYTGRSPKDKFIVKEASVADKIAWGAVNQPISEEHFNKLYTKVLEYLKEKEELFVFKGFAGADRNYRLPIQVINEYAWHNLFVHQLFIRPTEEELTTHESEFTIVSAPNFKADPAVDGTNSEAFIMVSFEKRIVLIGGTEYAGEMKKSIFSIMNFLLPEQDILSMHCSANVGEEGDVALFFGLSGTGKTTLSADPNRKLIGDDEHGWSDNGVFNIEGGCYAKCVNLSHEKEPQIFDAITFGSVLENVIINDQTRIADYNDTTLTENTRAAYPMHAIDNIILPSVAGHPNTIIFLTADASGVLPPISKLSKEQAMYHFLSGYTSKLAGTERGVTSPQATFSTCFGSPFLPLDASRYAEMLGEKIEKHDAKVFLVNTGWTGGEYGVGKRMNLGYTRAMIQAALNGELAKTETAKHDIFGLEVPLHVPGVPDEVLMPEQTWADKAAYKAKAIELANEFKANFKKFDSVSEDIINLGGPIA | not soluble
13 | MSVEPNHYLEITRSHVHQIYRELETSGKVITVDLVRKPYYDVDEDNKTLLQVFREHNEQSRKLIGKDFISKTVQRYETTTRYLEEFIKKEYQLSDIALNNLEANFISKFDAFLKIEKGCAQNSAITRLKNLKKIIRIALENDWIKKDPFAYYRFKLKETYPEFLTMDEIKIILAKEFTIKRVEQVRDVFIFCSYTGLAFSDVKDLSPEHLLKDNKGELWIKIFLSFHSSVFSSKNLHRLNTSLAKSMIQIKF | not soluble
14 | MSVEPTSVDPSPDKSAPANASGRADASARPSTGESARPSGGETPEVLRPHAEVTFAAELAALAAQDDRPRPVRWRLSPWAVATYLLGGTLPDGTVITPKYVGPRRIVEVAVTTLATDRALLLLGVPGTAKTWVSEHLAAAVSGDSTLLVQGTAGTPEEAIRYGWNYAQLLAHGPSRDALVPSPVMRAMADGMTARVEELTRVPADVQDTLITILSEKTLPIPELGQEVQAVRGFNLIATANDRDRGVNELSSALRRRFNTVVLPLPESADAEVDIVSRRVDQIGRSLDLPAVPDGVDEIRRVVTVFRELRDGVTTDGRTKLKSPSGTLSTAEAISVVTNGLALAAHFGDGVLRASDVAAGILGAVVRDPAADRVIWQEYLEAVVRERDGWMDFYRACREVSALEHHHHHH | soluble
